Assay results taken from patent US20170183667A1 (ANAEROPHARMA SCIENCE, published 2017).

Key:
[1] = biological target: T1, Recombinant Human PD-1 Fc Chimera (R&D Systems) (human, UniProt Q15116 25-167); test: ELISA, hPD-1 Fc chimera immobilised, scFv 1000 ng/mL
T1 construct: Bought reagent; also called hPD-1; Fc part of the bought chimera not given, not described
Method: (§1) After the solution was removed, 350 μL of 1×PBS was dispensed and the solution was removed. This operation was repeated three times to carry out washing. In the above plates, 350 μL of a 1% BSA solution was dispensed and incubated at room temperature for 2 hours to carry out blocking. After removing the solution, 350 μL of 1×PBS was dispensed and the solution was removed. This operation was repeated three times to carry out washing.
(§2) Each solution (100 μL) was dispensed in the plates to which blocking treatment was already applied. […] To a blank well, a signal enhancing reagent (100 μL) alone was dispensed. After the plates were sealed and incubated at room temperature for 2 hours, immobilized hPD-1 was allowed to react with each of the scFv antibodies. After the solution was removed, 350 μL of 1×PBS was dispensed and the solution was removed. This operation was repeated three times to carry out washing.
(§3) This solution (200 μL) was dispensed in the plates. The plates were sealed and incubated at room temperature for 20 minutes. […] Absorbance at 450 nm was measured, whereas absorbance at 570 nm was measured as a control.

[2] = biological target: T1, Recombinant Human PD-1 Fc Chimera (R&D …); test: ELISA, hPD-1 Fc chimera immobilised, scFv 1 ng/mL
Method: as §1, §2, §3

[3] = biological target: T1, Recombinant Human PD-1 Fc Chimera (R&D …); test: ELISA, hPD-1 Fc chimera immobilised, scFv 100 ng/mL
Method: as §1, §2, §3

[4] = biological target: T1, Recombinant Human PD-1 Fc Chimera (R&D …); test: ELISA, hPD-1 Fc chimera immobilised, scFv 10 ng/mL
Method: as §1, §2, §3

[5] = biological target: T2, Recombinant Human CTLA-4-Fc Chimera, carrier-free (BioLegend) (human, UniProt P16410 36-161); test: ELISA, hCTLA-4-Fc chimera immobilised
T2 construct: Bought reagent; also called hCTLA-4; Fc part of the bought chimera not given, not described
T2 sequence (looked up): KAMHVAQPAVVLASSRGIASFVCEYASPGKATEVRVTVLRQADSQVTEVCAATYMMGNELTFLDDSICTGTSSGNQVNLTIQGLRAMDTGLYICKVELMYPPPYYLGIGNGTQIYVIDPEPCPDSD

[6] = biological target: T3, Recombinant Mouse PD-1 Fc Chimera (R&D Systems) (mouse, UniProt Q02242 25-167); test: ELISA, mPD-1 Fc chimera immobilised, scFv 10 ng/mL
T3 construct: Bought reagent; also called mPD-1; Fc part of the bought chimera not given, not described
T3 sequence (looked up): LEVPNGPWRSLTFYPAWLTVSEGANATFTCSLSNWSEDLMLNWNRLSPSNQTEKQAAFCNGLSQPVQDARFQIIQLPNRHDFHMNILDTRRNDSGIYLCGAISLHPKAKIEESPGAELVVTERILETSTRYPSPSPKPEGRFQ
Method: (§4) After the solution was removed, 350 μL of 1×PBS was dispensed and the solution was removed. This operation was repeated three times to carry out washing. In the above plates, 350 μL of a 1% BSA solution was dispensed and incubated at room temperature for 2 hours to perform blocking. After the solution was removed, 350 μL of 1×PBS was dispensed and the solution was removed. This operation was repeated three times to carry out washing.
(§5) The anti-PD-1-3 scFv antibody purified from a bacterium of the genus Bifidobacterium was diluted with a signal enhancing reagent (Signal Enhancer HIKARI, manufactured by Nacalai Tesque) to prepare solutions having a concentration of 1000 ng/mL, 100 ng/mL and 10 ng/mL. Each solution (100 μL) was dispensed in the plates to which blocking treatment was already applied. […] To blank wells, a signal enhancing reagent (100 μL) alone was dispensed. After the plates were sealed and incubated at room temperature for 2 hours, immobilized mPD-1 was allowed to react with the anti-PD-1-3 scFv antibody. After the solution was removed, 350 μL of 1×PBS was dispensed and the solution was removed. This operation was repeated three times to carry out washing.
(§6) Absorbance at 450 nm was measured, whereas absorbance at 570 nm was measured as a control.

[7] = biological target: T3, Recombinant Mouse PD-1 Fc Chimera (R&D …); test: ELISA, mPD-1 Fc chimera immobilised, scFv 1000 ng/mL
Method: as §4, §5, §6

[8] = biological target: T3, Recombinant Mouse PD-1 Fc Chimera (R&D …); test: ELISA, mPD-1 Fc chimera immobilised, scFv 100 ng/mL
Method: as §4, §5, §6

T1 sequence (Q15116 25-167, change not shown): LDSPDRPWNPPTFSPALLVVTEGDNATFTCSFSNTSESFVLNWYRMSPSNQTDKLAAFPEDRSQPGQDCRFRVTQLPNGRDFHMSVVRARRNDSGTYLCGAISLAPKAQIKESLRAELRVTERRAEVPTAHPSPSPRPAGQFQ

Row | Binder | absorbance 450 nm (570 nm as control) [1] | absorbance 450 nm (570 nm as control) [2] | absorbance 450 nm (570 nm as control) [3] | absorbance 450 nm (570 nm as control) [4] | binding result [5] | absorbance 450 nm (570 nm as control) [6] | absorbance 450 nm (570 nm as control) [7] | absorbance 450 nm (570 nm as control) [8]
1 | anti-CTLA-4-1 scFv antibody purified from Bifidobacterium longum 105-A/pHuSP7L20-scFv-CTLA-4-1 strain (scFv) scFv: DSAQTSAVVSSRSFPKASSVQVQLVESGGGVVQPGRSLRLSCAASGFTFSSYGMHWVRQAPGKGLEWVAVIWYDGSNKYYADSVKGRFTISRDNSKNTLYLQMNSLRAEDTAVYYCARDPRGATLYYYYYGMDVWGQGTTVTVSSGGGGSGGGGSGGGGSDIQMTQSPSSLSASVGDRVTITCRASQSINSYLDWYQQKPGKAPKLLIYAASSLQSGVPSRFSGSGSGTDFTLTISSLQPEDFATYYCQQYYSTPFTFGPGTKVEIKHHHHHH | -0.038 | -0.092 | -0.117 | -0.106 |  |  |  | 
2 | anti-PD-1-3 scFv antibody purified from Bifidobacterium longum 105-A/pHuSP7L20-scFv-PD-1-3 strain (scFv, also called anti-mouse PD-1 scFv antibody; mPD-1 scFv) scFv: DSAQTSAVVSSRSFPKASSVMEVRLLESGGGLVKPEGSLKLSCVASGFTFSDYFMSWVRQAPGKGLEWVAHIYTKSYNYATYYSGSVKGRFTISRDDSRSMVYLQMNNLRTEDTATYYCTRDGSGYPSLDFWGQGTQVTVSSGGGGSGGGGSGGGGSYELTQPPSASVNVGETVKITCSGDQLPKYFADWFHQRSDQTILQVIYDDNKRPSGIPERISGSSSGTTATLTIRDVRAEDEGDYYCFSGYVDSDSKLYVFGSGTQLTVLGHHHHHH |  |  |  |  | no binding (tested: up to 1000 ng/mL) | 0.312 | 3.11 | 0.561
3 | anti-PD-1-2 scFv antibody purified from Bifidobacterium longum 105-A/pHuSP7L20-scFv-PD-1-2 strain (scFv, also called anti-human PD-1 antibody) scFv: DSAQTSAVVSSRSFPKASSVMQVQLQESGPGLVKPSQSLSLTCTVTGHSITSDYAWNWIRQFPGDKLEWMGYISYSGYTTYNPSLKSRVSITRDTSKNQFFLQLNSVTTEDTATYFCARDLDYGPWFAYWGQGTTVTVSSGGGGSGGGGSGGGGSDIQMTQSPASLSASVGETVTLTCRASENIHNYLAWYQQKQGKSPQLLVYNVKTLADGVPSRFSGSGSGTQYSLKINSLQPEDFGSYYCQHFWSSPWTFGGGTKLEIKRHHHHHH | 2.82 | 0.058 | 3.06 | 0.912 |  | 0.075 | 0.014 | -0.01
